These results are taken from doi:10.1101/2024.01.08.574761 (bioRxiv, 2024).

The target in the test is Claspin C-terminal polypeptide #18 (897-1339aa), 3x Flag, dephosphorylated with λPPase (human, UniProt Q9HAW4 897-1339, dephosphorylated with λPPase). The test is described as follows: native gel or EMSA.
Claspin C-terminal polypeptide #18 (897-1339aa), 3x Flag, dephosphorylated with λPPase, sequence (Q9HAW4 897-1339): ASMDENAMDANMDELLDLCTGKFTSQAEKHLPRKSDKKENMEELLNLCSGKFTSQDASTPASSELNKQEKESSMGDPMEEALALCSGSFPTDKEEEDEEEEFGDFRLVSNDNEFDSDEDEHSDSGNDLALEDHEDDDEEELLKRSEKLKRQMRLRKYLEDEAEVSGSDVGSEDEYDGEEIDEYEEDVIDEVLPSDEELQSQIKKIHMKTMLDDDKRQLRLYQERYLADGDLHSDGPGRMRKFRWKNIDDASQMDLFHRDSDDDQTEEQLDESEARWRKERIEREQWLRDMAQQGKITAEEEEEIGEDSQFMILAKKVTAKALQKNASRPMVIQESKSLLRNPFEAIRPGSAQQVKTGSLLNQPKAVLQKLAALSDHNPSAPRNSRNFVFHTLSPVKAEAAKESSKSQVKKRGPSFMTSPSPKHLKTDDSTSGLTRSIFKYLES

B1: Claspin N-terminal polypeptide #2 (1-350aa), dephosphorylated with λPPase (domain or fragment)
chain: MTGEVGSEVHLEINDPNVISQEEADSPSDSGQGSYETIGPLSEGDSDEEIFVSKKLKNRKVLQDSDSETEDTNASPEKTTYDSAEEENKENLYAGKNTKIKRIYKTVADSDESYMEKSLYQENLEAQVKPCLELSLQSGNSTDFTTDRKSSKKHIHDKEGTAGKAKVKSKRRLEKEERKMEKIRQLKKKETKNQEDDVEQPFNDSGCLLVDKDLFETGLEDENNSPLEDEESLESIRAAVKNKVKKHKKKEPSLESGVHSFEEGSELSKGTTRKERKAARLSKEALKQLHSETQRLIRESALNLPYHMPENKTIHDFFKRKPRPTCHGNAMALLKSSKYQSSHHKEIIDT
modifications: dephosphorylated with λPPase
On to B1, for which the binding result is reported as “binds”.
